Results from doi:10.1101/2023.11.22.568361 (bioRxiv, 2023).

Target: the molecule itself
Assay: AUC

## MAGNGGDAALALLLLDRLNQLESKMSGKGQQQQGQTV [isolated LRS peptide (N:210–246)]
  binding result: binds
